For one assay, the system named is pWT PDZ2. Briefly: Proteomic peptide-phage display (ProP-PD) selection, pWT PDZ2 as bait. As to conditions: number of this peptide among 71 sequenced binding clones after round three of ProP-PD selection. Details: species or system human. Here is the method: (§1) The peptide-phage library used in the selections consisted of 50,549 heptapeptides representing the C-terminal sequences of the human proteome, fused to the C-terminus of the major coat protein pVIII of the M13 phage. This library was developed and successfully used for the rapid isolation of potential cellular PDZ domain targets, as previously reported.
(§2) Individual binding clones were isolated and sequenced (see Table 1).
(§3) Peptide-phage selections against PDZØ9 and pWT PDZ2 were performed with a previously developed library of 50549 heptapeptides, representing all of the C-terminal sequences in the human proteome. Peptides are fused to the C-terminus of the gene-8 major coat protein of M13 phage and hereby referred to as the naïve peptide library. Each of the two selections was performed twice. First, the two lipoyl-PDZ proteins were used to coat 96-well Maxisorp microtiter plates (NUNC) by incubation overnight at 4 °C (15 μg of protein in 100 μl of PBS per well). For the first round of selection, two wells were used for each PDZ, whereas a single well was used for the following selections. In parallel, wells were coated with lipoyl domain alone in order to remove nonspecific binders by a preselection step. The following day, wells were blocked with 200 μl of 0.5% BSA in PBS for 1 h at 4 °C, and washed four times with PT buffer [PBS, 0.05% Tween-20] before addition of phages. Phage pools representing the naïve peptide library were diluted 50-fold in PBS, precipitated with PEG/NaCl [4% PEG-8000 and 0.5 M NaCl] by incubation for 10 min on ice, pelleted by centrifugation (10 min, 16000 × g), and resuspended in PBS. For each selection round, 100 μl of resuspended phage was added to the preselection wells and incubated for 1 h at 4 °C before transfer to the target wells in which they were incubated for 2 h at 4 °C. The wells were washed five times with PT buffer and bound phages were eluted by direct infection of bacteria through the addition of 100 μl log-phase Escherichia coli Omnimax (Invitrogen) in 2TY, followed by 30 min incubation at 37 °C with shaking. Phage production was initiated by the addition of M13K07 helper phage (New England Biolabs) to a final concentration of 10^10 phage/ml and continued incubation at 37 °C for 45 min. The cultures were then transferred to 10 ml 2TY containing 100 μg/ml carbenicillin, 30 μg/ml kanamycin, and 1 mM IPTG, and shaken overnight at 37 °C. The bacteria were pelleted by centrifugation (10 min, 5300 × g), and the phage-containing supernatant was transferred to a new tube in which phages were precipitated with PEG/NaCl as described above, pelleted by centrifugation (15 min, 5300 × g), and resuspended in 1 ml of PBS. The resuspended phages, hereby-denoted Øout, were then used for the next round of selection. A total of five rounds were carried out and the enrichment of phages specific for the target was monitored by analysing aliquots of Øout in a phage ELISA performed as described below. For each of the five rounds of the respective selection, 10 μg of target protein and lipoyl domain were individually coated in parallel wells using the same type of plate, procedure, and blocking the following day, as described for the selection rounds above. When the 200 μl of blocking solution had been aspirated, 100 μl of resuspended phage was added and incubated for 30 min at 4 °C.

A further assay concerns PDZØ9. As to the kind of experiment: Proteomic peptide-phage display (ProP-PD) selection, PDZØ9 as bait. As to conditions: number of this peptide among 76 sequenced binding clones after round three of ProP-PD selection. The arrangement: species or system human. Here is the method:
as §1, §2, §3

In assay [1] the target is PDZØ9, engineered variant (L391F/K392M) of pWT SAP97 PDZ2 (human) (UniProt Q12959). Briefly: stopped-flow spectroscopy.
Sequence of PDZØ9, engineered variant (L391F/K392M) of pWT SAP97 PDZ2 (human) (Q12959 311-407, stated change not applied): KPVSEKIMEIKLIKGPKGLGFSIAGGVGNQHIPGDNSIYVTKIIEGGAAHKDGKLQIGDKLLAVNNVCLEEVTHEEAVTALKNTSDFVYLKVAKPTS
Assay [2] deals with Pseudo wild type SAP97 PDZ2 (second PDZ domain of synapse associated protein 97, I342W/C378A) (human) (UniProt Q12959). Briefly: stopped-flow spectroscopy.
Sequence of Pseudo wild type SAP97 PDZ2 (second PDZ domain of synapse associated protein 97, I342W/C378A) (human) (Q12959 311-407, stated change not applied): as the sequence (Q12959 311-407, stated change not applied) above
Another assay deals with pWT PDZ2 K392M (human) (UniProt Q12959). As to the kind of experiment: stopped-flow spectroscopy.
Sequence of pWT PDZ2 K392M (human) (Q12959 311-407, stated change not applied): as the sequence (Q12959 311-407, stated change not applied) above
The target of assay [3] is pWT PDZ2 L391F (human) (UniProt Q12959). As to the kind of experiment: stopped-flow spectroscopy.
Sequence of pWT PDZ2 L391F (human) (Q12959 311-407, stated change not applied): as the sequence (Q12959 311-407, stated change not applied) above
Assay [4] has the same target. Briefly: ITC; PGKETQL peptide titrated into pWT PDZ2 L391F; iTC200, 10 °C, 50 mM potassium phosphate, pH 7.5; 1:1 model; duplicate titrations, average parameters. In general terms: ITC needs no label: the signal is the heat of the interaction.

Ends that are not written are not given here.

Turning to WKHETTV, in the assay with pWT PDZ2, the “Prevalence, pWT PDZ2 (71)” value was 5. Also, in the assay on PDZØ9, the “Prevalence, PDZØ9 (76)” value was found to be 4.
Turning to AGKTTIL, the “Prevalence, PDZØ9 (76)” value with PDZØ9 was 1.
For the molecule WKNETTV, in the assay on pWT PDZ2, the “Prevalence, pWT PDZ2 (71)” value was found to be 1. In the assay with PDZØ9, the “Prevalence, PDZØ9 (76)” value is reported as 1.
Consider RAISTDV, for which, in the assay on PDZØ9, the “Prevalence, PDZØ9 (76)” value was found to be 2.
Regarding KIKETTV, the “Prevalence, pWT PDZ2 (71)” value in the assay on pWT PDZ2 was 3. Besides, the “Prevalence, PDZØ9 (76)” value in the assay with PDZØ9 is 1.
For KGTETTL, in the assay with PDZØ9, the “Prevalence, PDZØ9 (76)” value was 1.
Still for that read-out and setting: to YKKETPL belongs 1.
For IKTETTV, the “Prevalence, pWT PDZ2 (71)” value in the assay on pWT PDZ2 came out at 7. The “Prevalence, PDZØ9 (76)” value in the assay on PDZØ9 is on record as 1.
Consider AGRETTV, for which the “Prevalence, pWT PDZ2 (71)” value with pWT PDZ2 stood at 1.
Take WKSETTV: the “Prevalence, pWT PDZ2 (71)” value in the assay on pWT PDZ2 is on record as 1. Besides, the “Prevalence, PDZØ9 (76)” value in the assay on PDZØ9 turned out to be 1.
As to Ac-EKKHTLL [EKKHTLL peptide (C-terminus of E9PN86_HUMAN, partial transcript of EIF3M_HUMAN)], the koff in assay [1] amounted to 7.9 s⁻¹; in assay [2], 112 s⁻¹; with pWT PDZ2 K392M (human) it was 157 s⁻¹; in the assay with pWT PDZ2 L391F (human) [3] it was 7.1 s⁻¹. Besides, the kon in assay [1] was determined as 1.4e+07 M⁻¹ s⁻¹; in assay [2], 1.2e+07 M⁻¹ s⁻¹; with pWT PDZ2 K392M (human), 1.1e+07 M⁻¹ s⁻¹; in the assay with pWT PDZ2 L391F (human) [3], 1.1e+07 M⁻¹ s⁻¹.
Consider Ac-VSKETPL [VSKETPL peptide (C-terminus of mitogen-activated protein kinase 12, p38γ)], for which the koff in assay [1] is 6.3 s⁻¹; in assay [2], 154 s⁻¹; with pWT PDZ2 K392M (human) it was 150 s⁻¹; with pWT PDZ2 L391F (human) [3], 8.8 s⁻¹. The kon in assay [1] worked out at 8.4e+06 M⁻¹ s⁻¹; in assay [2] it was 4e+07 M⁻¹ s⁻¹; in the assay with pWT PDZ2 K392M (human) it was 2.4e+07 M⁻¹ s⁻¹; with pWT PDZ2 L391F (human) [3] it was 1.1e+07 M⁻¹ s⁻¹.
For Ac-TSRETDL [TSRETDL peptide (C-terminus of potassium voltage-gated channel subfamily A member 5, Kv1.5)], the off-rate (koff) in assay [1] was found to be 2.6 s⁻¹; in assay [2], 71 s⁻¹; with pWT PDZ2 K392M (human) it was 62 s⁻¹; with pWT PDZ2 L391F (human) [3] it was 3.8 s⁻¹. Moreover, the kon in assay [1] was 1.5e+07 M⁻¹ s⁻¹; in assay [2] it was 3.3e+07 M⁻¹ s⁻¹; in the assay with pWT PDZ2 K392M (human), 1.5e+07 M⁻¹ s⁻¹; with pWT PDZ2 L391F (human) [3], 1.8e+07 M⁻¹ s⁻¹.
Regarding Ac-PGKETQL [PGKETQL peptide (C-terminus of SO1C1_HUMAN)], the off-rate (koff) in assay [1] is 3.9 s⁻¹; in assay [2], 51 s⁻¹; in the assay with pWT PDZ2 K392M (human), 48 s⁻¹; in the assay with pWT PDZ2 L391F (human) [3], 5 s⁻¹. Moreover, the on-rate constant (kon) in assay [1] amounted to 1.6e+07 M⁻¹ s⁻¹; in assay [2], 1.8e+07 M⁻¹ s⁻¹; with pWT PDZ2 K392M (human), 1.8e+07 M⁻¹ s⁻¹; with pWT PDZ2 L391F (human) [3], 2e+07 M⁻¹ s⁻¹. Further, the Kd with pWT PDZ2 L391F (human) [4] was found to be 310 nM. In the assay with pWT PDZ2 L391F (human) [4], this molecule yielded a stoichiometry N of 0.76.
Regarding Ac-YRRESAI [YRRESAI peptide (C-terminus of inward rectifier potassium channel 4, Kir2.3)], the off-rate (koff) in assay [1] is 17 s⁻¹; in assay [2], 87 s⁻¹; in the assay with pWT PDZ2 K392M (human), 105 s⁻¹; with pWT PDZ2 L391F (human) [3], 15 s⁻¹. Besides, the kon in assay [1] was determined as 2.2e+07 M⁻¹ s⁻¹; in assay [2], 1.9e+07 M⁻¹ s⁻¹; in the assay with pWT PDZ2 K392M (human) it was 2.5e+07 M⁻¹ s⁻¹; with pWT PDZ2 L391F (human) [3], 1.9e+07 M⁻¹ s⁻¹.
As for Ac-NSKETVV [NSKETVV peptide (C-terminus of E3 ubiquitin-protein ligase MARCH3)], the koff stood at 1.6 s⁻¹ in assay [1], 8.6 s⁻¹ in assay [2], 7.7 s⁻¹ with pWT PDZ2 K392M (human) and 1.9 s⁻¹ with pWT PDZ2 L391F (human) [3]. For the same molecule, the association rate constant (kon) in assay [1] was found to be 1e+07 M⁻¹ s⁻¹; in assay [2], 1.3e+07 M⁻¹ s⁻¹; with pWT PDZ2 K392M (human), 9.7e+06 M⁻¹ s⁻¹; in the assay with pWT PDZ2 L391F (human) [3], 1.3e+07 M⁻¹ s⁻¹.
For the molecule SARSTDV [SARSTDV peptide (C-terminus of anoctamin-9)], the off-rate constant (koff) stood at 3.4 s⁻¹ in assay [1], 26 s⁻¹ in assay [2], 25 s⁻¹ with pWT PDZ2 K392M (human) and 4 s⁻¹ with pWT PDZ2 L391F (human) [3]. Also, the kon in assay [1] was found to be 1.3e+07 M⁻¹ s⁻¹; in assay [2], 1.6e+07 M⁻¹ s⁻¹; with pWT PDZ2 K392M (human), 1.2e+07 M⁻¹ s⁻¹; in the assay with pWT PDZ2 L391F (human) [3], 1.8e+07 M⁻¹ s⁻¹.

The koff is the rate constant with which the complex falls apart. Broadly, the kon is the rate constant with which the complex forms. A low value points to slower complex formation. Usually Kd stands for the constant that tells how readily two partners part at equilibrium. Low readings indicate tighter binding, high ones weaker binding. One may read the stoichiometry N as a count of units in the complex or per binding partner.

Source of the values: article PMC5046105, “Improved affinity at the cost of decreased specificity: a recurring theme in PDZ-peptide interactions” (Scientific Reports, 2016).
